Patent US20190390248
Where two headings read alike, the source gives them in different places.

B1: notecarin from Notechis scutatus venom (protein)
chain: SNSLFEEIRPGNIERECIEEKCSKEEAREVFEDNEKTETFWNVYVDGDQCSSNPCHYRGTCKDGIGSYTCTCLPNYEGKNCEKVLFKSCRAFNGNCWHFCKRVQSETQCSCAESYLLGVDGHSCVAEGDFSCGRNIKARNKREASLPDFVQSQKATVLKKSDNPSPDIRIVNGMDCKLGECPWQAVLINEKGEVFCGGTILSPIHVLTAAHCINQTKSVSVIVGEIDISRKETRRLLSVDKIYVHKKFVPPNSYYQNIDRFAYDYDIAIIRMKTPIQFSENVVPACLPTADFAKEVLMKQDSGIVSGFGRTQSIGYTSNILKVITVPYVDRHTCMLSSNFRITQNMFCAGYDTLPQDACQGDSGGPHITAYGDTHFVTGIISWGEGCARKGKYGVYTKVSNFIPWIKKIMSLK
B2: OsPA (prothrombin activator purified from Oxyuranus scutellatus venom) (protein)
chain 1: AQLREYRLAAQLEDWDYNPQPEELSRLSESDLTFKKIVYREYELDFKQEKPRDELSGLLGPTLRGEVGDSLIIYFKNFATQPVSIHPQSAVYNKWSEGSSYSDGTSDVERLDDAVPPGQSFKYVWNITAEIGPKKADPPCLTYAYYSHVNMVRDFNSGLIGALLICKEGSLNADGAQKFFNREYVLMFSVFDESKNWYRKPSLQYTINGFANGTLPDVQACAYDHISWHLIGMSSSPEIFSVHFNGQTLEQNHYKVSTINLVGGASVTANMSVSRTGKWLISSLVAKHLQAGMYGYLNIKDCGNPDTLTRKLSFRERRRIMKWEYFIAAEEITWDYAPEIPSSVDRRYKAQYLDNFSNFIGKKYKKAVFRQYEDSNFTKPTYAIWPKERGILGPVIKAKVRDTVTIVFKNLASRPYSIYVHGVSVSKDAEGAVYPSDPKENITHGKAVEPGQVYTYKWTVLDTDEPTVKDSECITKLYHSAVDMTRDIASGLIGPPLVCKRKALSIRGVQNKADVEQHAVFAVFDENKSWYLEDNIKKYCSNPSSVKKDDPKFYKSNVMYTLNGYASDRTEVWGFHQSEVVEWHLTSVGTVDEIVPVHLSGHTFLSKGKHQDILNLFPMSGESATVTMDNLGTWLLSSWGSCEMSNGMRLRFLDANYDDEDEGNEEEEEDDGDIFADIFNPPEVVIKKEEVPVNFVPDPESDALAKELGLFDDEDNPKQSRSEQTEDDEEQLMIASMLGLRSFKGSVAEEELKHTALALEEDAHASDPRIDSNSAHNSDDIAGRYLRTINRRNKRRYYIAAEEVLWDYSPIGKSQVRSLPAKTTFKKAIFRSYLDDTFQTPSTGGEYEKHLGILGPIIRAEVDDVIEVQFRNLASRPYSLHAHGLLYEKSSEGRSYDDNSPELFKKDDAIMPNGTYTYVWQVPPRSGPTDNTEKCKSWAYYSGVNPEKDIHSGLIGPILICQKGMIDKYNRTIDIREFVLFFMVFDEEKSWYFPKSDKSTCEEKLIGVQSRHTFPAINGIPYQLQGLMMYKDENVHWHLLNMGGPKDVHVVNFHGQTFTEEGREDNQLGVLPLLPGTFASIKMKPSKIGTWLLETEVGENQERGMQALFTVIDKDCKLPMGLASGIIQDSQISASGHVGYWEPKLARLNNTGMFNAWSIIKKEHEHPWIQIDLQRQVVITGIQTQGTVQLLKHSYTVEYFVTYSKDGQNWITFKGRHSKTQMHFEGNSDGTTVKENHIDPPIIARYIRLHPTKFYNTPTFRIELLGCEVEGCSVPLGMESGAIKDSEITASSYKKTWWSSWEPFLARLNLKGRTNAWQPKVNNKDQWLQIDLQHLTKITSIITQGATSMTTSMYVKTFSIHYTDDNSTWKPYLDVRTSMEKVFTGNINSDGHVKHFFNPPILSRFIRIIPKTWNQYIALRIELFGCEVF
chain 2: ANSLYEEFRSGNIERECIEERCSKEEAREVFEDDEKTETFWNVYVDGDQCSSNPCHYRGTCKDGIGSYTCTCLSGYEGKNCERVLYKSCRVDNGNCWHFCKPVQNDIQCSCAEGYLLGEDGHSCVAGGNFSCGRNIKTRNKREASLPDFVQSQNAILLKKSDNPSPDIRIVNGMDCKLGECPWQAVLVDEKEDAFCGGTILSPIYVLTAAHCINQTKMISVVVGEINISRKNPGRLLSVDKIYVHQKFVPPKKGYEFYEKFDLVSYDYDIAILQMKTPIQFSENVVPACLPTADFANQVLMKQDFGIVSGFGRIFEKGPQSKTLKVLKVPYVDRHTCMLSSESPITPTMFCAGYDTLPRDACQGDSGGPHITAYRDTHFITGIVSWGEGCAQTGKYGVYTKVSKFILWIKRIMRQKLPSTESSTGRL
B3: ecarin from Echis carinatus venom (protein)
chain: IILGSGNVNDYEVVYPQKVTALPKGAVQQPEQKYEDAMQYEFEVKGEPVVHLEKNKELFSEDYSETHYSSDDREITTNPSVEDHCYYHGRIQNDAESTASISACNGLKGHFKLRGETYFIEPLKIPDSEHAVYKYENIENEDEAPKMCGVTQDNWESDEPIKKTLGLIVPPHERKFEKKFIELVVVVDHSMVTKYNNDSTAIRTWIYELNTVNEIYLPFNIRVALVGLEFWCNGDLINVTSTADDTLHSFGEWRASDLLNRKRHDHAQLLTNVTLDHSTLGITFVYGCKSDRSVELILDYSNITFNMAYIIAHEMGHSLGMLHDTKFCTCGAKPCIMFGKESIPPPKEFSSCSYDQYNKYLLKYNPCILDPPLRKDIASPAVCGNEIWEEGEECDCGSPADCRNPCCDAATCKLKPGAECGNGECCDKCKIRKAGTECRPARDDCVAEHCTGQSAECPRNEFQRNGQPCLNNSGYCYNGDCPIMLNQCIALFSPSATVAQDSCFQRNLQGSYYGYCTKEIGYYGRFPCAPQDVKCGRLYCLDNSFKKNMRCKNDYSYADENKGIVEPGTKCEDGKVCINRKCVDVNTAY

Target: human prothrombin, P00734
[1] = scale: nmol thrombin/mL/min/µmol prothrombin/µmol activator

Protein | N-terminal sequencing of SDS-PAGE bands | percent of S-2238 hydrolysed by the thrombin formed | Thrombin generation rate [1] | fold more effective than carinactivase-1 (activation rate constants) | fold more effective than carinactivase-2 (activation rate constants) | fold more effective than ecarin (activation rate constants) | fold more effective than notecarin (activation rate constants) | Thrombin generation rate
B1 | confirmed conversion of prothrombin to alpha-thrombin by PtPA and notecarin | then carinactivase-1 and lastly notecarin (<1%) being the least efficient | 0.043 | – | – | – | – | –
B2 | – | – | 44 | more than 200 times then carinactivase-1 | more than 20 times more effective than ecarin and carinactivase-2 | more than 20 times more effective than ecarin and carinactivase-2 | approximately 1000 times more effective than notecarin | –
B3 | – | – | – | – | – | – | – | 2.76
